# Reference: the DeepSol protein solubility set
# Assay: soluble on expression in E. coli; label from the status in PepcDB or PDB records
row,Sequence,soluble on expression in E. coli
1,MGSDKIHHHHHHMSGKPAARVTDPTTCPVPGHGSNPIVQGSPDVVFDGLPAARQGDASACGSPMISAVSSTVLINGLPAVTLGSIGAHGNVVIGGSGTVLIGDVFTPAPRAPALPLNRNSVPCSGRFQLIDHETGKPVAGRRVRVWSSGGWNAFDTTDADGMTSWIERPTAEILYIDLVQRCDA,not soluble
2,MRIKPECALCITRQVVDVAKEITDDKSEQFKIIAWGIEKISEAYGESSVPSFMGTEIHRHIKKMSKNSDPYKNLKNVANEFALKYLNDVEKLLESDDELERLQNKVKLSIAGNVIDFGPYSTGVNIEKMVKDTLDGKLDVDFSKELLDELKNSKKVFYTCDNAGEIVFDLPLIKELKNYVEVVVSVKGSPILNDATLDDVKTAGIDKVTKVITSGTDAIGVRFEESSEEFINELNSSDFVIAKGMGNYESLTEYEEKHGQNSEKIPVYYILKAKCEPVAEHIGVSEGDNVLLRKEISKVLEHHHHHH,soluble
3,MATKSVLMLGSGFVTRPTLDVLTDSGIKVTVACRTLESAKKLSAGVQHSTPISLDVNDDAALDAEVAKHDLVISLIPYTFHATVIKSAIRQKKHVVTTSYVSPAMMELDQAAKDAGITVMNEIGLDPGIDHLYAIKTIEEVHAAGGKIKTFLSYCGGLPAPESSDNPLGYKFSWSSRGVLLALRNAASFYKDGKVTNVAGPELMATAKPYFIYPGFAFVAYPNRDSTPYKERYQIPEADNIVRGTLRYQGFPQFIKVLVDIGFLSDEEQPFLKEAIPWKEATQKIVKASSASEQDIVSTIVSNATFESTEEQKRIVAGLKWLGIFSDKKITPRGNALDTLCATLEEKMQFEEGERDLVMLQHKFEIENKDGSRETRTSSLCEYGAPIGSGGYSAMAKLVGVPCAVAVKFVLDGTISDRGVLAPMNSKINDPLMKELKEKYGIECKEKVVA,soluble
4,MEQLNICIDIDGTITDAYYWIDLCNSYFKTSITEKDATQYYIHKILNVPLEEYNEFYEKYKYKLHSEQKLRKDVKSVITKLSQNNNIFFVTARERDLTILTYSYLRKKEIPYDSLFILGTHHKVPTARQLNCDLFIEDNYDNALELSKAGFKVLLIDTYYNRKPLNQNIIRFYNWDEVYGIVDRLFEKSEAI,not soluble
5,MATFASRELTEEDDSHPGPSEKSEKDVLGIVRTGPKKLITGESSSLFKLKNELLKRKDRLNSEVHIKHTETHVSGKSNLLSTKKEEKERQARKDESRKLRIEKNERAVRREEDEARLMAAQQKLREKSELYDRMQEGNVVLANLDDTPVEFLVDFGTKKRRIEEERAWERERYREQEEAAPIGFGRAPIPEHYHHSEEQRVYGTSHMRLSLNENKRKEEIEKLLEMSKKTDMDKAKKKETEKHRDILRREKLNKLRAKHGLELLPEIVEPVAVPASQIDLNSIPLPGQKETPEERHARLMKSDREWDRGKGHYTTWIEKQRDERDDEFRPPDSYFR,soluble
6,MTAKMETTFYDDALNASFLPSESGPYGYSNPKILKQSMTLNLADPVGSLKPHLRAKNSDLLTSPDVGLLKLASPELERLIIQSSNGHITTTPTPTQFLCPKNVTDEQEGFAEGFVRALAELHSQNTLPSVTSAAQPVNGAGMVAPAVASVAGGSGSGGFSASLHSEPPVYANLSNFNPGALSSGGGAPSYGAAGLAFPAQPQQQQQPPHHLPQQMPVQHPRLQALKEEPQTVPEMPGETPPLSPIDMESQERIKAERKRMRNRIAASKCRKRKLERIARLEEKVKTLKAQNSELASTANMLREQVAQLKQKVMNHVNSGCQLMLTQQLQTF,soluble
7,MIVNEINSSEEVLQIEQIDVEGQRAEYNRIQQERQDYQYAMRFAVHVDQVAVQALPIPAQSPEHLVAEHSNAQVPVDARPNPPTQSPAPRAAPDHGPVQAPRNLAQALNLPRRARGRPRRSDVRRTRDAQDSVATQQGPNAEQSGILVPPASRQQPEHSATSTISAPLSPASSTNMALQNAPSDHGDQLIRDSSEDRQNVPAPRRSARIASHTQYRTSPYVSARQGHRLAIARGRAAPGTLDPSASRQSIPSTSDAPVLVPHAPPAPPSPTLQDCVICMEEPVNPKVCPKCLKMIGCAKCFRWWTVFRCWWQSSLNPSCPLCRLKWDSAPKVIAAKKFYDGK,not soluble
8,MGSDKIHHHHHHMFYYERVNQFDTIAVSVDSVDRRRIKGTIDLDGLKFIMYFDYTQDVDIDYDLAGMIMTMPVINYAYFAKRIKLNFPVSLSFLKLVKEFIRINNIETFINSIVRRRYEFFLKEYLPSDEEITQENAEGRTEVLADISDGDKKKLEVDDRKVIVLSSGGKESLLTFGILKEIGAVVYPVFFNESGAHWKTAKVAYDYFSSKYENVLRVWSNVDRFYSFVNRHLKILDQDEIRRKADSYPVQMFIFPVYIFSVLPYVIKYGIGNIALGDELDDPIYEEPYHGIKHYYGVYDQTNDFNLTLTSFLREYGIHCKVFSAVYPIFGTLVEKILVQRYNDLFRVQRSCHLCHYEGGDVKPCGTCSKCLGVLLFMLNAEADPTEAGYSIEHVKQLEDNVNSASMRLDPDELEYLKAKVFEGRRINSHIEGIHQLPGENSAFSLVPERFRDGVRSIVSKYSTGFYKFVGSEWVKID,not soluble
9,MSLKKRIFVTGGAEGIGRAIVEAFCKDGHQVAFCDINAVSGQQTARDTGAIFHPVDVSDKEALESCMQQILDEWKDIDIVINNVGISKFSSITETSVEDFDKILSVNLRPVFITSRLLAIHRKAQSDSNPYGRIINICSTRYLMSEPGSEGYAASKGGIYSLTHALALSLSEWNITVNSIAPGWIQTQNYDQLRPEDHSQHPSRRVGKPEDIARMCLFLCRDENDFINGENITIDGGMTKKMIYTEGHHHHHH,soluble
10,MAEKMQAIMKTKPAYGAELVEVDVPKPGPGEVLIKVLATSICGTDLHIYEWNEWAQSRIKPPQIMGHEVAGEVVEVGPGVEDLQVGDYISVETHIVCGKCYACKHNRYHVCQNTKIFGVDMDGVFAHYAIVPAKNAWKNPKDMPPEYAALQEPLGNAVDTVLAGPIAGRSTLITGAGPLGLLGIAVAKASGAYPVIVSEPSEFRRKLAKKVGADYVVNPFEEDPVKFVMDITDGAGVEVFLEFSGAPKALEQGLKAVTPGGRVSLLGLFPREVTIDFNNLIIFKALEVHGITGRHLWETWYTVSSLIQSGKLNLDPIITHKYKGFDKFEEAFELMRAGKTGKVVFFPHKG,soluble
11,MGSDKIHHHHHHLTWPEASKAASENGSTLVWPFGACEQHGPHLPLITDTFFAENILIKTLNRLPENMPIWMMPSQSIGFSPEHQAFPGTLSLSADVLISMVTDVGQQIASMGFNRLVFFNAHGGQIGLLQAVSRQLRIQCPSIAVLPCFLWSGVPGLDQLLPEKEVEEGLHAALAETSLMLHMARDLVRNDSYLEIKNVDKQIVTTPKGWSLEGASPCAWLTEDLSSSGVIGDASSSNSELGAALENALVDHWIALFTSLLESDWPPIRSERPVSSS,not soluble
12,MPITWMRMRPWLEMQINSNQIPGLIWINKEEMIFQIPWKHAAKHGWDINKDACLFRSWAIHTGRYKAGEKEPDPKTWKANFRCAMNSLPDIEEVKDQSRNKGSSAVRVYRMLP,soluble
13,MHHHHHHMKRKSIFKDKVFLFLNAKQYKKLSPAVLFGGGKTDLLMGELKDASVLDNPATCVIDVAMTESQLSESQSTQPWITSTLDLLQSKGLRTIPEAEIGLAVINVSTEIYCNPRR,soluble
14,MKKSVDFIGVGTGPFNLSIAALSHQIEELNCLFFDEHPHFSWHPGMLVPDCHMQTVFLKDLVSAVAPTNPYSFVNYLVKHKKFYRFLTSRLRTVSREEFSDYLRWAAEDMNNLYFSHTVENIDFDKKSRLFLVQTSRGEYFARNICLGTGKQPYLPPCVKHVTQSCFHASEMNLRRPDLSGKRITVVGGGQSGADLFLNALRGEWGEAAEINWVSRRNNFNALDEAAFADEYFTPEYISGFSGLKEDIRHQLLDEQKMTSDGITADSLLTIYRELYHRFEVLRKPRNIRLLPSRSVTTLESSGPGWKLLMEHHLDRGRESLESDVVIFATGYRSALPQILPSLMPLITMHDKNTFKVRDDFTLEWSGPKENNIFAVNASMQTHGIAEPQLSLMAWRSARILNRVLGRDLFDLSMPPALIQWRSGSRKKPQPEAAALTHYTTNIQE,soluble
15,DYKDDDDKVKLTCYQNGVSFTGGKAISEAKAASSQACQELCEKDAKCRFFTLASGKCSLFADDAALRPTKSDGAVSGNKRCILLED,soluble
16,MSLIQIENQTVSGIPFLHIVKEENRHRAVPLVIFIHGFTSAKEHNLHIAYLLAEKGFRAVLPEALHHGERGEEMAVEELAGHFWDIVLNEIEEIGVLKNHFEKEGLIDGGRIGLAGTSMGGITTLGALTAYDWIKAGVSLMGSPNYVELFQQQIDHIQSQGIEIDVPEEKVQQLMKRLELRDLSLQPEKLQQRPLLFWHGAKDKVVPYAPTRKFYDTIKSHYSEQPERLQFIGDENADHKVPRAAVLKTIEWFETYLEGGSHHHHHH,soluble
17,MKFPGKRKSKHYFPVNARDPLLQQFQPENETSAAWVVGIDQTLVDIEAKVDDEFIERYGLSAGHSLVIEDDVAEALYQELKQKNLITHQFAGGTIGNTMHNYSVLADDRSVLLGVMCSNIEIGSYAYRYLCNTSSRTDLNYLQGVDGPIGRCFTLIGESGERTFAISPGHMNQLRAESIPEDVIAGASALVLTSYLVRCKPGEPMPEATMKAIEYAKKYNVPVVLTLGTKFVIAENPQWWQQFLKDHVSILAMNEDEAEALTGESDPLLASDKALDWVDLVLCTAGPIGLYMAGFTEDEAKRKTQHPLLPGAIAEFNQYEFSRAMRHKDCQNPLRVYSHIAPYMGGPEKIMNTNGAGDGALAALLHDITANSYHRSNVPNSSKHKFTWLTYSSLAQVCKYANRVSYQVLNQHSPRLTRGLPEREDSLEESYWDR,not soluble
18,MDIGTQLKFLRNRRGWTMQEVADRIGKNDSTYSGYETNKRKPNAEVLVQLADIFDTTTDFILGRTENPNGLNFNVKDFLDQGRLHSDGVEITDEQAEIANVLLRQLLQRKQQ,not soluble
19,MVGPATGRIVVTSRIVVLGGGFGGMYAARALKRRLGRAAEIELVNAENYFVFQPLLPEVGAGSITPAHAVSPLRFLLRDVFVRKATVDSVDFDRRLVTVFQGVQRRPTEIGYDHLVIALGQAADLSKMPGLEEHALTMRTLEDARRLRAHVIGQLEHAQITRLPEVKRGALTFCVVGGGFSGIETAGEMKDLIDRSLKFYPDIDPSEVRMIVVEFADRILGEMSQGLADYATRTLRERGIEVKLGTGVASATGTQLVTTTGEVIDTRTIVATIGNAPSPVVRRMGLPSERGRISVDRTLAVKGRSDVWALGDCALIALKDAPQGPRDYAPPTAQFAVREAEQLAENIASTLTGGTPQPFDYRSKGALASLGARKGVAQVFGLELKGFPAWLLWRFYYLAFLPGLTTRIFVLLNWFMDGISPRSVVQLHTRSVPPTRYVRYRAGDVIYEAGNRSDGFYTVVTGAVEMTRTDPETGLPQVRTIGPGGHFGERLILGATRRQTSVRAAEDTKVLVMDREEFLKLADSFQAFRDYFGPYMARHGMTWPPLGETDGQAAPKPVPTEKDLEHHHHHH,not soluble
20,MGSSEVSIIPGLQKEEKAAVERRRLHVLKALKKLRIEADEAPVVAVLGSGGGLRAHIACLGVLSEMKEQGLLDAVTYLAGVSGSTWAISSLYTNDGDMEALEADLKHRFTRQEWDLAKSLQKTIQAARSENYSLTDFWAYMVISKQTRELPESHLSNMKKPVEEGTLPYPIFAAIDNDLQPSWQEARAPETWFEFTPHHAGFSALGAFVSITHFGSKFKKGRLVRTHPERDLTFLRGLWGSALGNTEVIREYIFDQLRNLTLKGLWRRAVANAKSIGHLIFARLLRLQESSQGEHPPPEDEGGEPEHTWLTEMLENWTRTSLEKQEQPHEDPERKGSLSNLMDFVKKTGICASKWEWGTTHNFLYKHGGIRDKIMSSRKHLHLVDAGLAINTPFPLVLPPTREVHLILSFDFSAGDPFETIRATTDYCRRHKIPFPQVEEAELDLWSKAPASCYILKGETGPVVMHFPLFNIDACGGDIEAWSDTYDTFKLADTYTLDVVVLLLALAKKNVRENKKKILRELMNVAGLYYPKDSARSCCLA,soluble
